B1: FAM46C (parent)
chain: VRSRLEEAGIKVHDVRLNGSAAGH

Variants of: B1
Assay: protein stability index of a GFP-peptide fusion (GPS, HEK-293T) (PSI 1-6); higher = more stable
Details: c terminus: a fixed tail appended
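Also: lentivirally expressed fusions sorted by FACS into six bins by GFP to DsRed ratio, PSI derived from sequencing read proportions per bin multiplied by bin number.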

Protein stability index: each site, then its substitutions
L5: K 3.97 | Y 3.04 | W 3.49 | V 3.7 | C 3.68 | T 4.59 | G 4.21 | D 4.35 | A 4.34 | S 4.34 | E 4.38 | Q 5.12 | R 4 | N 4.03
H13: A 2.98 | I 1.03 | D 1.02 | S 1.19 | N 2.74 | W 2.02 | F 1.74 | M 1.53 | Y 1.25 | T 1.86 | G 4.18 | K 2.02 | E 4.06 | Q 2.42 | P 4.08 | R 2.32
E6: Q 3.22 | M 1.71 | T 2.44 | N 3.54 | W 1.64 | H 2.9 | D 3.09 | I 2.54 | F 2.46 | P 3.71 | S 2.7 | Y 2.1 | G 3.06 | R 2.59
E7: T 2.51 | H 2.37 | C 1.47 | W 1.99 | R 3.32 | Y 2.8 | S 2.5 | I 2.48 | P 3.78 | F 2.49 | G 3.06 | K 2.45
D14: Y 2.74 | P 4.54 | I 1.29 | Q 2.56 | H 3.04 | L 2.43 | M 1.79 | C 2.33 | T 2.8 | W 1.62 | E 2.4 | S 2.64
A8: E 4.46 | N 3.17 | D 4.49 | Y 1.13 | H 3.12 | P 3.88 | I 1.66 | M 2.58 | T 3.2 | R 1.96 | F 1.85 | K 3.38 | W 2.19
S3: Q 1.79 | K 1.37 | W 2.05 | H 3.76 | N 1.77 | P 4.33 | M 1.53 | L 1.28 | Y 1.53 | T 1.68 | V 1.69
V12: P 4.06 | A 3.93 | M 3.25 | K 4.25 | S 3.93 | T 2.29 | F 3.04 | G 4.04 | I 2.67 | W 2.77 | E 4.73 | R 4.44 | Q 4.06 | Y 3.33 | L 2.56 | N 4.04 | H 3.6
G9: N 3.91 | R 3.88 | W 2.81 | A 2.76 | I 1.44 | D 3.89 | V 2.88 | P 3.67 | K 2.75 | Y 2.51 | M 3.15 | S 3.9 | L 2.26 | T 2.97 | Q 3.88 | H 4.57 | C 3.03
K11: A 3.94 | I 1.63 | C 2.73 | E 2.89 | V 2.36 | H 1.99 | Q 2.74 | T 4.08 | S 3.76 | G 3.13 | L 3.83 | M 2.01 | F 1.51 | W 2.69 | N 3.82
I10: M 3.78 | P 4.56 | C 2.89 | G 4.5 | V 4.24 | T 3.78 | Y 1.75 | A 3.63 | F 2.12 | S 3.9 | R 3.41
R4: A 1.2 | Y 1.81 | N 2.47 | Q 3.52 | F 1.89 | E 4.73 | S 3 | H 3.26 | G 3.25 | I 2.53 | C 2.72 | K 2.27 | T 3.71 | W 2.33 | P 4.24

— the supplement of paper PMC10567573
